Sequences and labels used below:
B1: antibody 367 (antibody, V domains shown)
VH: QVQLVQSGAEVKKPGASVKVSCKASGYTFTGYYIHWVRQAPGQGLEWMGWINPNSGGTIYAQKFQGRVTMTRDTSISTAYMELSRLTSDDTAVYSCAREPYYDILTGYYAPRRYFDYWGQGTLVTVSS
VL: QSALTQPASVSGSPGQSITISCTGTSSDVGSYNYVSWYLQHPGKAPKLMIYDVSNRPSGVSNRFSGSKSGNTASLTISGLQAEDEADFYCSSYTSRSTYVFGTGTKVTVL
B2: antibody 407 (antibody, V domains shown)
VH: QVQLVESGGGVVQPGRSLRLSCAASGFTFSSYGMHWVRQAPGKGLEWVAVISYDGSNKYYADSVKGRFTISRDNSKNTLYLQMNSLRAEDTAVYYCAKCGWDYDFWVGQGYGMDVWGQGTTVTVSS
VL: not shown
B3: antibody 380 (antibody, V domains shown)
VH: QVQLVESGGGVVQPGRSLRLSCAASGFTLKNYGMHWVRQAPGKGLEWVIVLSFDGSDEYKADSVRGRFTVSRDNSKNTLFLQMNSLRPDDTAVYYCAREQPTMIEGGRGPFDIWGQGTMVTVSS
VL: EVVMTQSPATLSVSPGDRATLSCRASQGVNSNLAWYQQKPGQAPRLLIYAASTRATGIPARFSASGSGTHFTLTISSLQSEDFAVYYCLQYNNWPPWTFGQGTKLEIK
B4: antibody 366 (antibody, V domains shown)
VH: QVQLVESGGGVVQPGRSLRLSCAASGFTFSSYAMHWVRQAPGKGLEWVAVISYDGSNKYYADSVKGRFTISRDNSKNTLYLQMNSLRAEDTAVYYCARGLVGYNWFDPWGQGTLVTVSS
VL: DIQMTQSPSSVSASVGDRVTITCRASQGISSWLAWYQQKPGKAPKLLIYAASSLQSGVPSRFSGSGSGTDFTLTISSLQPEDFATYYCQQANSFTFGPGTKVDIK
B5: antibody 395 (antibody, V domains shown)
VH: QVQLVQSGSELKKPGASVKLSCQASGYTFSNHAMNWVRQAPGQGLEWMGWINTNTGNPTYAQGFTGRFVFSLDTSVGTAYLHISSLKAEDTAFYYCARASARPGVATNLDFWGQGTLVVVSS
VL: DIQMTQSPSSLSASVGDRVTITCRTSQNIDNYLNWYQQKPGKAPNLLIYAASRLHSGVPSRFSGSGSGTDFTLIISSLQPEDLATYYCQQSYSNPLTFGPGTKVDIR
B6: antibody 385 (antibody, V domains shown)
VH: QVQLVESGGGVVQPGRSLRLSCAASGFTFSSYAIHWVRQAPGKGLEWVAVISYDGSNKYYADSVKGRFTISRDNSKNTLYLQMNSLRAEDTAVYYCARPRSGSYWGAFDIWGQGTMVTVSS
VL: QSVLTQPPSVSGAPGQRVTISCTGSSSNIGARYDVHWYQQLPGTAPKLLIYGNSNRPSGVPDRFSGSKSGTSASLAITGLQAEDEADYYCQSYDSSLRGVFGGGTKLTVL
B7: antibody 409 (antibody, V domains shown)
VH: QVTLRESGPALVKPTQTLTLTCTFSGFSLSTSGMCVSWIRQPPGKALEWLALIDWDDDKYYSTSLKTRLTISKDTSKNQVVLTMTNMDPVDTATYYCARTTYYYVSGRRAEFDPWGQGTLVTVSS
VL: NFMLTQPHSVSESPGKTVTISCTGSSGSIASNYVQWYQQRPGSAPTTVIYEDNQRPSGVPDRFSGSIDSSSNSASLTISGLKTEDEADYYCQSYDSSNQGVFGGGTKLTVL
B8: antibody 372 (antibody, V domains shown)
VH: QVQLVESGGGVVQPGRSLRLSCAASGFTFSSYAMHWVRQAPGKGLEWVAVISYDGSNKYYADSVKGRFTISRDNSKNTLYLQMNSLRAEDTAVYYCARDLGTSALLWFGELFLNYGMDVWGQGTTVTVSS
VL: QSALTQPRSVSGSPGQSVTISCTGTSSDVGGYNYVSWYQQHPGKAPKLMIYDVSKRPSGVPDRFSGSKSGNTASLTISGLQAEDEADYYCCSYAGSPILVFGGGTKLTVL
B9: antibody 405 (antibody, V domains shown)
VH: not shown
VL: QSALTQPRSVSGSPGQSVTISCTGTSSDVGGYNYVSWYQQHPGKAPKLMIYDVSKRPSGVPDRFSGSKSGNTASLTISGLQAEDEADYYCCSYAGSYNVVFGGGTKLTVL
B10: antibody 378 (antibody, V domains shown)
VH: QVQLVQSGAEVKKPGASVKVSCKASGYTFTSYYMHWVRQAPGQGLEWMGIINPSGGSTSYAQKFQGRVTMTRDTSTSTVYMELSSLRSEDTAVYYCARDSGGMDDFWSGYYSPGGDYWGQGTLVTVSS
VL: QSALTQPASVSGSPGQSITISCTGTSSDVGSYNLVSWYQQHPGKAPKLMIYEGSKRPSGVSNRFSGSKSGNTASLTISGLQAEDEADYYCCSYAGSSTWVFGGGTKLTVL
B11: antibody 365 (antibody, V domains shown)
VH: QVQLVESGGGVVQPGRSLRLSCAASGFNLSSYAMHWVRQASGKGLEWVSLISYDGSIKYYTDSVKGRFTVSGDNSKNTLFLQMNSLRPDDSALYYCVRGGVSGPNSFDMWGQGTTVTVSS
VL: DVVMTQSPLSLPVTLGQPASISCRSSQSLVYSDGNTYVNWFQQRPGQSPRRLIYKVSIRASGVPDRFSGSGSGTDFALKISRVEAEDVGVYYCMQGTHWPVTFGQGTKVEIK
B12: antibody 475 (antibody, V domains shown)
VH: QVQLVESGGGVVQPGRSLRLSCAASGFTFSSYAMHWVRQAPGKGLEWVTFISHEGSNKYYADSVKGRFTISRDNSKNTLYLQMNSLRAEDTAVYYCARTFEYSSSSATGDFDYWGQGTLVTVSS
VL: QSVLTQPPSVSGAPGQRVTISCTGSSSNIGAGYDVHWYQQLPGTAPKLLIYGNSNRPSGVPDRFSGSKSGTSASLAITGLQAEDEADYYCQSYDSSLSGVVFGGGTKLTVL
B13: antibody 480 (antibody, V domains shown)
VH: QVQLVESGGGVVQPGRSLRLSCAASGFTFSSYAMHWVRQAPGKGLEWVAVISYDGNNKYYADSVKGRFTISRDNSKNTLYLQMNSLRAEDTAVYYCVRTNSGSYYAAFDYWGQGTLVTVSS
VL: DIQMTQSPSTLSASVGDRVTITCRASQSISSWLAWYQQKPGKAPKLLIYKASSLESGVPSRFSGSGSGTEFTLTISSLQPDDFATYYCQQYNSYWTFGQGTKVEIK
B14: antibody 477 (antibody, V domains shown)
VH: QVQLVESGGGVVQPGRSLRLSCAASGITFSSYAMHWVRQAPGKGLEWVAVISYDGSDKYHADSVKGRFAISRDNSKNTLYLQMNSLRAEDTAVYYCAKDKGIAVAGTGWIRPDPEYYFDYWGQGTLVTVSS
VL: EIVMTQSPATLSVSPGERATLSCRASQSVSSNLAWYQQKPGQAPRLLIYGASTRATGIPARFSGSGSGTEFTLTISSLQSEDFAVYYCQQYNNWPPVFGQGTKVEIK
B15: antibody 470 (antibody, V domains shown)
VH: not shown
VL: QSALTQPASVSGSPGQSITISCTGTSSDVGSYNLVSWYQQHPGKAPKLMIYEVSKRPSGVSNRFSGSKSGNTASLTISGLQAEDEADYYCCSYAGSSTLVFGGGTKLTVL
B16: antibody 476 (antibody, V domains shown)
VH: QVQLVQSGSELKKPGASVKVSCKASGYTFTSYAMNWVRQAPGQGLEWMGWINTNTGNPTYAQGFTGRFVFSLDTSVSTAYLQISSLKAEDTGVYYCARDHELPNSSSWFGHFEYWGQGTLVTVSS
VL: SYELTQPPSVSVSPGQTARITCSGDALPKQYAYWYQQKAGQAPVLVIYKDSERRSGIPERFSGSSSGTTVTLTISGVQAEDEADYYCQSADSSGTSVVFGGGTKLTVL
B17: antibody 482 (antibody, V domains shown)
VH: EVQLVESGGGLVQPGGSLRLSCAASGFTFSSYWMTWVRQAPGKGLEWVANIKQDGSEKYYVDSVKGRFTISRDNAKNSLYLQMNSLRAEDTAVYYCARGVGSWYLGFDYWGQGTLVTVSS
VL: NFMLTQPHSVSESPGKTVTISCTGSSGSIASNYVQWYQQRPGSAPTTVIYEDNQRPSGVPDRFSGSIDSSSNSASLTISGLKTEDEADYYCQSYDGSSYVFGTGTKVTVL
B18: antibody 563 (antibody, V domains shown)
VH: QVQLVESGGGVVQPGRSLRLSCAASGFTFSSYAMHWVRQAPGKGLEWVAVISDDGSNKYYADSVKGRFTISRDNSKNTLYLQMNSLRAEDTAVYYCARDIVATIRRLFDYWGQGTLVTVSS
VL: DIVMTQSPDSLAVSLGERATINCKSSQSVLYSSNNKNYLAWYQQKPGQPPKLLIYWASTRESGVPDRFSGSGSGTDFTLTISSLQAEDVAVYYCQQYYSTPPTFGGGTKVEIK
B19: antibody 560 (antibody, V domains shown)
VH: EVQLVESGGGLVQPGGSLRLSCAASGFTISSNYMSWVRQAPGKGLEWVSVIYSGGSTYYADSVKGRFTISRDNSKNTLYLQMNSLRAEDTAVYYCAREEGEWEKDYYGMDVWGQGTTVTVSS
VL: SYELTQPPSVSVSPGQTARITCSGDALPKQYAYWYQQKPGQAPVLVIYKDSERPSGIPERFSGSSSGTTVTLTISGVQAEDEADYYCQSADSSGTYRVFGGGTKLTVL
B20: antibody 548 (antibody, V domains shown)
VH: QVQLVESGGGVVQPGRSLRLSCAASGFTFSSYAMHWVRQAPGKGLEWVAVISYDGSNKYYADSVKGRFTISRDNSKNTLYLQMNNLRAEDTAVYYCAKSGSGSYLSAFDIWGQGTMVTVSS
VL: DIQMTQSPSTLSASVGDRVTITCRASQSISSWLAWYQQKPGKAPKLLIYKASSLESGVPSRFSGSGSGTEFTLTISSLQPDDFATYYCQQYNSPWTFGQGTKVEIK
B21: antibody 556 (antibody, V domains shown)
VH: QVQLVESGGGVVQPGRSLRLSCAASGFTFSSYAMHWVRQAPGKGLEWVAVISYDGSDKYYADSVKGRVTISRDNSKNTLYLQMNSLRVEDTAVFYCAKDDCSGGVCFPDYWGQGTLVTVSS
VL: QSALTQPASVSGSPGQSITISCTGTSSDVGGYNYVSWYQQHPGKAPKLMIYEVSIRPSGVSNRFSGSKSGNTASLTISGLQAEDEAAYYCSSYTSSSTLVFGGGTKLTVL
B22: antibody 547 (antibody, V domains shown)
VH: QVHLVESGGGVVQPGRSLRLSCAASGFALSSYAMHWVRQPPGKGLEWVALISYDGSVKKYADSVKGRITVSGDNSRNTLHLQINSLRADDTAVYYCVRGGVSGPNSFDLWGHGTMVTVSS
VL: DVVLTQSPLSLPVTLGQPASISCRSSQSLEYSVGNTYVNWFQQRPGQSPRRLIYKVSNRDSGVPDRFSGSGSGTDFTLQISRVEADDVGIYYCMQGTHWPVTFGQGTKVEIK

The target of one assay is SARS-CoV-2 full length spike protein (wild type), conjugated to beads (SARS-CoV-2, UniProt P0DTC2 14-1208).
B1: the “binding signal, bead assay” value worked out at 1090 fold over isotype.

As to B2, the “binding signal, bead assay” value amounted to 785 fold over isotype.

Consider B3, for which the “binding signal, bead assay” value was found to be 1.15 fold over isotype.

As to B4, the “binding signal, bead assay” value was found to be 553 fold over isotype.

Turning to B5, the “binding signal, bead assay” value was found to be 592 fold over isotype.

B6: the “binding signal, bead assay” value was determined as 602 fold over isotype.

On to B7, for which the “binding signal, bead assay” value came to 552 fold over isotype.

For B8, the “binding signal, bead assay” value came out at 823 fold over isotype.

Regarding B9, the “binding signal, bead assay” value was 487 fold over isotype.

As for B10, the “binding signal, bead assay” value turned out to be 526 fold over isotype.

Turning to B11, the “binding signal, bead assay” value came to 533 fold over isotype.

For a further assay, the target named is SARS-CoV-2 full length spike protein (wild type), expressed on the surface of transiently transfected CHO … (SARS-CoV-2, UniProt P0DTC2 14-1273).
In the case of B12, the “median fluorescence intensity, fold over isotype control” value (from here on “median fluorescence intensity, fold”) was 32.2 fold over isotype.

For the molecule B13, the “median fluorescence intensity, fold” value amounted to 9.77 fold over isotype.

Take B14: the “median fluorescence intensity, fold” value came out at 30.7 fold over isotype.

Consider B15, for which the “median fluorescence intensity, fold” value is 20.7 fold over isotype.

Turning to B16, the “median fluorescence intensity, fold” value was found to be 18.2 fold over isotype.

With B17, the “median fluorescence intensity, fold” value was 2.31 fold over isotype.

The target in the next assay is SARS-CoV-2 full length spike (S) protein, wild type, expressed on the surface of CHO cells (SARS-CoV-2, UniProt P0DTC2 14-1273).
For B18, the “median fluorescence intensity, fold” value is 9.67 fold over isotype.

Consider B19, for which the “median fluorescence intensity, fold” value was found to be 22.8 fold over isotype.

In the case of B20, the “median fluorescence intensity, fold” value was determined as 9.26 fold over isotype.

Regarding B21, the “median fluorescence intensity, fold” value is 7.59 fold over isotype.

Regarding B22, the “median fluorescence intensity, fold” value was determined as 10.6 fold over isotype.

(Values after patent US20210292393A1 (published 2021).)
